Read-outs that look alike come from different tables or passages of the source.

The target in one series is T1, LP1413 (Staphylococcus aureus USA300, UniProt Q0WXP5 1-96).
T1 sequence: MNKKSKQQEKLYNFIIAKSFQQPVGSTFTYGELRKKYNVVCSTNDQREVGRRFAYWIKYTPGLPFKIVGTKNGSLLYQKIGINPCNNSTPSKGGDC
Nature of the series: EMSA.

The series “crystal structure” deals with the molecule itself. The series is described as follows: crystal structure.
Series [1] has as its target T2, Cch (Staphylococcus aureus USA300, UniProt A0A0H2XHF3 1-595). The series is described as follows: EMSA. In general terms: In EMSA bound probe runs differently from free probe, usually more slowly.
Series [2] concerns the target T2, Cch. The series is described as follows: EMSA. This is another data set of the same source.
The target in another series is CchWH (Staphylococcus aureus USA300, UniProt A0A0H2XHF3 436-595). The series is described as follows: EMSA.

For the molecule GAGTAATGATATGTGGCTATGTCTTAATATATGTGAAGAA (ssDNA) [iter-int-1F ssDNA 40 nt], in the series with LP1413, the binding result is reported as “binds”.

B1: iter-int-1F/inter-int-2R 40 bp duplex (dsDNA)
DNA 1: GAGTAATGATATGTGGCTATGTCTTAATATATGTGAAGAA
DNA 2: TTCTTCACATATATTAAGACATAGCCACATATCATTACTC
Consider B1, for which, in the series with LP1413, the binding result is on record as “no binding”.

B2: Selenomethionine-derivatized Cch-6xHis (enzyme)
chain: MSYTLFEIGPFALDSFGWKETIPPKKDGDSEKVVRMASPIIVNARFSDPITGVEKLIITNNNGKKDIFESDILTTRNLPSLIKYGYSINEKYIRSLSYALQLMRDRLPLSELYEGVGILETPFGYLISLDKVLKSIQFNQSSPSYPIVDSAYDLTPKGTFDNWFNMYIDEVKGHLLLELAVIFGISALVTSFLKHKHEIEFAGILFSFTGQSSTGKSTAAALAVSVAGNPTKGNETLFRSWNATRNALEGYLSNNYGIPIVFDELSSTTLRDTTGLLYSIAEGQGRQRSNVHGEVKTPKNWGTSVISTSEYSIFNDSAQNDGLRVRTIEINEQFTTNATNADNIKKAVALNYGHVLPLVAKYLINREDEVIQWFYKEVDWFEAKLKDETNNTGIRMFKRYAVITTSAKILGRVLSTDIDIANIRDYFIDYHTHTVSERSLADKAIDVIIQFVAQNRGKFSDEGALKNMFENYGLISLKDDHIEVKIIANVFKQMLNNHQFQDVNNVVNALRDKGFILADRGRQTTKRSVKDNSGKKQSLVFYHLKLDVEFASILGLTKDKSLLQNWTPSNDNKAAKELFKSANEGIGPSGVHEDF
modifications: selenomethionine in place of methionine
For the molecule B2, in “crystal structure”, the stoichiometry N (usually the number of molecules, sites or subunits per partner or assembly) came out at 6.

B3: HELA-8R ssDNA (ssDNA)
DNA: CGCTTTAAAAGAAGTCAACGTCTTACCACTTCCAGTTGTATGCCATACATATCC
On to B3, for which the binding result in the series with Cch [1] was “binds”.

B4: scc-emsa-3F/4R 60 bp duplex (3' end of cch) (dsDNA)
DNA 1: TTTTAAATCCGCTAATGAAGGGATAGGCCCTTCAGGAGTTCACGAAGATTTCTAATTGTC
DNA 2: GACAATTAGAAATCTTCGTGAACTCCTGAAGGGCCTATCCCTTCATTAGCGGATTTAAAA
With B4, the binding result with Cch [2] and in the series with CchWH was “binds” in each case.

For the origin of these results see publication PMC5052118 (Nature structural & molecular biology, 2016).
